According to article PMC3024583:
Where a chain is given by its changes, count along the chain named. Like-named read-outs stand apart in the source and are kept apart here.

Legend:
Test in all cases: EMSA
[1] = target: T1, CSL (CBF1);Notch1 RAMANK wild-type;MAML1 (human?;human;human?, UniProt Q06330;P46531;Q92585 23-449;1760-2126;13-74, ||)
[2] = target: CSL (CBF1);Notch1 RAMANK R1985A;MAML1 (human?;human;human?, UniProt Q06330;P46531;Q92585 23-449;1760-2126;13-74, |R1984A|)
[3] = target: T1, CSL (CBF1);Notch1 RAMANK wild-type;MAML1; remark: listed apart in the source
[4] = target: T1, CSL (CBF1);Notch1 RAMANK wild-type;MAML1; remark: listed apart in the source
[5] = target: T1, CSL (CBF1);Notch1 RAMANK wild-type;MAML1; remark: listed apart in the source
[6] = target: T1, CSL (CBF1);Notch1 RAMANK wild-type;MAML1; remark: listed apart in the source
[7] = target: T1, CSL (CBF1);Notch1 RAMANK wild-type;MAML1; remark: listed apart in the source

T1 sequence (Q06330 23-449, chain 1 of 3): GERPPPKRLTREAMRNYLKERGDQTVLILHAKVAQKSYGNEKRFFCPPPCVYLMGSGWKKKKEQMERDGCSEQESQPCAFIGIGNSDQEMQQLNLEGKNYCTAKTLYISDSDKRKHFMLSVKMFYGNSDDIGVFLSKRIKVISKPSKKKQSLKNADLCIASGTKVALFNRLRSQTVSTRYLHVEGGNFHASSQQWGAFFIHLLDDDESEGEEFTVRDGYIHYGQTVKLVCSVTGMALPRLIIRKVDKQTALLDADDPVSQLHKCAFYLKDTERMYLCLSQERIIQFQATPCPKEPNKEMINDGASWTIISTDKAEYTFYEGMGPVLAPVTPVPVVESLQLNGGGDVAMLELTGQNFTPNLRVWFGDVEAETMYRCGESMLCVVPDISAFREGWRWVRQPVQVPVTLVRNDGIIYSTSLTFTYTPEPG
T1 sequence (P46531 1760-2126, chain 2 of 3): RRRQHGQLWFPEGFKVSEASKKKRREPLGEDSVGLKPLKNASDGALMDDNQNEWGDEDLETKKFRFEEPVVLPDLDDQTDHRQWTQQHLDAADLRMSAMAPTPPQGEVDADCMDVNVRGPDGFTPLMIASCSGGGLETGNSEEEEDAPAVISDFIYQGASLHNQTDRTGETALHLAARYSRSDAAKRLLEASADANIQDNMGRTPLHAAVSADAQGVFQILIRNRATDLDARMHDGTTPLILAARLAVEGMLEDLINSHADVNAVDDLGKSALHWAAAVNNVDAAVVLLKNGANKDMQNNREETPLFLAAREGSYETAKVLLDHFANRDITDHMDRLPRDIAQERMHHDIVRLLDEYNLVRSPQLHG
T1 sequence (Q92585 13-74, chain 3 of 3): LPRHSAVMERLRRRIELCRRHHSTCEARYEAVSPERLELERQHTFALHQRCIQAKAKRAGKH
Chain of CSL (CBF1);Notch1 RAMANK R1985A;MAML1 (Q06330 23-449, chain 1 of 3): as the sequence (Q06330 23-449, chain 1 of 3) above
Chain of CSL (CBF1);Notch1 RAMANK R1985A;MAML1 (P46531 1760-2126 R1984A, chain 2 of 3): as the sequence (P46531 1760-2126, chain 2 of 3) above, with R225A counted along it
Chain of CSL (CBF1);Notch1 RAMANK R1985A;MAML1 (Q92585 13-74, chain 3 of 3): as the sequence (Q92585 13-74, chain 3 of 3) above

B1: 17bp SPS (CUL1) (dsDNA)
DNA 1: GAATTACGTGGGAATTATAAATAAATTACTCTTCACACTCTTATCC
DNA 2: GGATAAGAGTGTGAAGAGTAATTTATTTATAATTCCCACGTAATTC
- binding result [1]: binds

B2: Single-site control (dsDNA)
DNA 1: GGAAACACGCCGTGGGAAAAAATTTGGC
DNA 2: GCCAAATTTTTTCCCACGGCGTGTTTCC
- binding result [2]: binds
- binding result [3]: binds

B3: HES4 SPS (dsDNA)
DNA 1: GGCGAGTGTGGGAAAGAATGCGGAGCCGGGTTCACACACCCCGCGG
DNA 2: CCGCGGGGTGTGTGAACCCGGCTCCGCATTCTTTCCCACACTCGCC
- binding result [4]: binds

B4: HES5_E_long human (dsDNA)
DNA 1: GCGGAGTGTGGGAACGGCCGCGGCGCCCGGACTCCAGGCGCCAGGCCGC
DNA 2: GCGGCCTGGCGCCTGGAGTCCGGGCGCCGCGGCCGTTCCCACACTCCGC
- binding result [5]: binds

B5: Hes5_E_long mouse (dsDNA)
DNA 1: B4 DNA 1 with G3C, T33C, A43G
DNA 2: B4 DNA 2 with T7C, A17G, C47G
- binding result [5]: binds

B6: FJX1 SPS (dsDNA)
DNA 1: GGACCTGTGAATCGCGCCCACCGGAGGGTCTCACAAGC
DNA 2: GCTTGTGAGACCCTCCGGTGGGCGCGATTCACAGGTCC
- binding result [4]: binds

B7: HES1 SPS (dsDNA)
DNA 1: AGTTACTGTGGGAAAGAAAGTTTGGGAAGTTTCACACGAGCCGTTC
DNA 2: GAACGGCTCGTGTGAAACTTCCCAAACTTTCTTTCCCACAGTAACT
- binding result [6]: binds

B8: 15bp SPS (SYT14) (dsDNA)
DNA 1: GCCAAACATGGGAAATTGCTGCTATTCTTTTCCCACTACAGCC
DNA 2: GGCTGTAGTGGGAAAAGAATAGCAGCAATTTCCCATGTTTGGC
- binding result [7]: binds
